Measured values from patent US20200281934A1, “SSTR-TARGETED CONJUGATES AND FORMULATIONS THEREOF” (TARVEDA THERAPEUTICS, INC., priority 2017, published 2020).
Where two headings read alike, the source gives them in different places.

How the values were obtained:
Format in all cases: in vivo, human
[1] = Phase 1 plasma pharmacokinetics of Conjugate 57 during dose escalation; details: for AUC(0-inf) / Cmax / clearance / Vd: mean, 1 hour IV infusion; for Vd: read-out: Vz
Experimental: (§1) The acetate salt of Conjugate 57 was administered to a patient as a 1 hour IV infusion once on an every 3 week schedule to escalating cohorts of 2-6 patients. Patients received Conjugate 57 treatment for 3 weeks, 6 weeks, 9 weeks, 12 weeks, 15 weeks, 18 weeks, 21 weeks, 24 weeks, 27 weeks, 30 weeks, 33 weeks, 36 weeks, 39 weeks, 42 weeks, 45 weeks, 48 weeks, 51 weeks, 54 weeks, 57 weeks, or 60 weeks. There were 7 Cohorts with the starting does of 1.0 mg and the highest dose of 25.0 mg. The doses of Conjugate 57 given to pateints were flat: 1.0 mg, 2.0 mg, 4.0 mg, 8.0 mg, 12.0 mg, 18.0 mg and 25.0 mg. Conjugate 57 concentrate for Solution for Injection is a sterile concentrated liquid containing Conjugate 57, mannitol, Polyoxyl 15 Hydroxystearate and acetate buffer. Each dosage unit contains 2.5 mg of Conjugate 57 (free-form) per mL, 50 mg/mL mannitol, 20 mg/mL Polyoxyl 15 Hydroxystearate and pH 4.0-4.8 acetate buffer in a stoppered 10 mL clear vial. Prior to administration, the product was diluted with 5% Mannitol Injection USP. The resulting diluted Conjugate 57 formulation can be infused intravenously.
Serial PK samples were collected prior, during and up to 10 hours after the start of infusion on Day 1 of Cycle 1 and Cycle 3.
Cmax is the maximum (or peak) serum concentration of a drug after the drug has been administrated and before the administration of a second dose. Area under curve to infinity (AUCinf) is a is a theoretical measure of the total exposure of drug to the body from administration till all the drug is eliminated. Clearance (CL) is the volume of plasma cleared of drug per unit time. It is an index of how well a drug is removed irreversibly from circulation. Volume of distribution (Vz) was also measured. Vz represents the degree to which a drug is distributed in body tissue rather than the plasma.

[2] = Phase 1 safety, tolerability and maximum tolerated dose; details: patients
Description: The objectives of Phase 1 were to assess the safety and tolerability and determine the maximum tolerated dose and recommended Phase 2 dose of Conjugate 57 when administered intravenously on an every 3 week schedule in patients with somatostatin receptor 2 expressing advanced cancers (including gastroenteropancreatic or lung or thymus or other neuroendocrine tumors or small cell lung cancer or large cell neuroendocrine carcinoma of the lung). It also characterized both acute and chronic toxicities of Conjugate 57, characterized key pharmacokinetic parameters of Conjugate 57, DM1, and peptide ligand from Conjugate 57, assessed the potential of Conjugate 57 to induce anti-drug antibodies, and assessed preliminary anti-tumor activity by using standard tumor response criteria (RECIST 1.1) and pharmacodynamic (PDc) biomarker changes that include chromogranin A (CgA), neuron-specific enolase (NSE), and circulating tumor cells (CTCs) in the blood, and 5-hydroxyindoleacetic acid (5-HIAA) in the urine. In addition, the study explored the relationships between tumor SSTR2 expression as measured by multiple modalities (somatostatin analog radioimaging, immunohistochemistry, CTCs, or exosome analyses) and PK, efficacy, safety, anti-Conjugate 57 antibodies, and PDc biomarker changes in the blood. […]
(§2) Disease response was assessed by duration of response and RECIST 1.1. […]

[3] = system: somatostatin receptor 2 expressing advanced cancers; experiment: Phase 1 preliminary anti-tumor activity (RECIST 1.1, duration of response)
Description: (§3) The objectives of Phase 1 were to assess the safety and tolerability and determine the maximum tolerated dose and recommended Phase 2 dose of Conjugate 57 when administered intravenously on an every 3 week schedule in patients with somatostatin receptor 2 expressing advanced cancers (including gastroenteropancreatic or lung or thymus or other neuroendocrine tumors or small cell lung cancer or large cell neuroendocrine carcinoma of the lung). It also characterized both acute and chronic toxicities of Conjugate 57, characterized key pharmacokinetic parameters of Conjugate 57, DM1, and peptide ligand from Conjugate 57, assessed the potential of Conjugate 57 to induce anti-drug antibodies, and assessed preliminary anti-tumor activity by using standard tumor response criteria (RECIST 1.1) and pharmacodynamic (PDc) biomarker changes that include chromogranin A (CgA), neuron-specific enolase (NSE), and circulating tumor cells (CTCs) in the blood, and 5-hydroxyindoleacetic acid (5-HIAA) in the urine. In addition, the study explored the relationships between tumor SSTR2 expression as measured by multiple modalities (somatostatin analog radioimaging, immunohistochemistry, CTCs, or exosome analyses) and PK, efficacy, safety, anti-Conjugate 57 antibodies, and PDc biomarker changes in the blood. Phase 1 study had two parts: Phase 1 Part A (dose escalation) and Phase 1 Part B (early expansion).
All patients were required to have SSTR2 expressing tumors. Tumor SSTR2 expression was determined by imaging within the preceding approximately 6 months, with Octreoscan or ^68Ga-DOTATATE, ^68Ga-DOTATOC, or ^68Ga-DOTANOC.
as §1, with “The resulting diluted Conjugate 57 formulation can be infused intravenously.” left out
as §2

GI (large bowel) NET = experiment: Circulating biomarkers of neuroendocrine tumors and symptoms in a GI NET patient; details: 18 mg
Description: as §3
A patient with well differentiated, intermediate grade GI (large bowel) NET with metastasis to lymph nodes, bone, lung, and brain was treated with Conjugate 57 at 18 mg. Their tumors progressed on all prior therapies: lanreotide, mTOR inhibitor, and/or 177Lu-DOTATATE. […] Circulating biomarkers of neuroendocrine tumors (NETs), including chromogranin A (CgA), neuron specific enolase (NSE) and circulating tumor cells (CTC), were collected and measured over time. Increased CgA is predictive of poor morphological response, progression free survival (PFS), and overall survival (OS) in pancreatic NETs. Decline in plasma concentration of NSE has been associated with response to treatment. Changes in CTCs has been associated with response to treatment in patients with NETs.

[4] = human, plasma, patients, dose 1 mg
[5] = human, plasma, patients, dose 2 mg
[6] = human, plasma, patients, dose 4 mg
[7] = human, plasma, patients, dose 8 mg
[8] = human, plasma, patients, dose 12 mg
[9] = human, plasma, patients, dose 18 mg
[10] = human, plasma, patients, dose 25 mg

Q: For `COc1cc2cc(c1Cl)N(C)C(=O)C[C@H](OC(=O)[C@H](C)N(C)C(=O)CCSSC[C@H](NC(=O)[C@@H]1CSSC[C@H](NC(=O)[C@H](N)Cc3ccccc3)C(=O)N[C@@H](Cc3ccc(O)cc3)C(=O)N[C@H](Cc3c[nH]c4ccccc34)C(=O)N[C@@H](CCCCN)C(=O)N[C@@H]([C@@H](C)O)C(=O)N1)C(N)=O)[C@]1(C)O[C@H]1[C@H](C)[C@@H]1C[C@@](O)(NC(=O)O1)[C@H](OC)/C=C/C=C(\C)C2` [Conjugate 57], which “AUCinf relative to efficacious exposure threshold seen in pre-clinical xenograft studies of SCLC models” value ([1]; 12 mg and higher dose cohorts) is on record?
A: The value was “above efficacious exposure threshold”.

Q: And the half-life ([1]; human, intravenous, plasma, patients, across all dose cohorts, read-out: Median t½ (half-life) (converted))?
A: The half-life was 1.7 h.

Q: What about the AUC(0-inf) [1, 4] of the same compound?
A: Its AUC(0-inf) is 0.0146 µM·h.

Q: And the Cmax [1, 4]?
A: Its Cmax is 7.47 nM.

Q: What about the clearance [1, 4] of the same compound?
A: The clearance was 633 mL/min.

Q: What about the Vd [1, 4] of the same compound?
A: Its Vd is 65 L.

Q: What about the AUC(0-inf) [1, 5] of the same compound?
A: Its AUC(0-inf) is 0.0379 µM·h.

Q: What about the Cmax [1, 5] of the same compound?
A: Its Cmax is 20.5 nM.

Q: And the clearance [1, 5]?
A: Its clearance is 583 mL/min.

Q: And the Vd [1, 5]?
A: The Vd was 80 L.

Q: What about the AUC(0-inf) [1, 6] of the same compound?
A: The AUC(0-inf) was 0.118 µM·h.

Q: And the Cmax [1, 6]?
A: The Cmax was 74.3 nM.

Q: And the clearance [1, 6]?
A: Its clearance is 333 mL/min.

Q: What about the Vd [1, 6] of the same compound?
A: The Vd was 60 L.

Q: What about the AUC(0-inf) [1, 7] of the same compound?
A: Its AUC(0-inf) is 0.341 µM·h.

Q: What about the Cmax [1, 7] of the same compound?
A: The Cmax was 186 nM.

Q: And the clearance [1, 7]?
A: Its clearance is 250 mL/min.

Q: And the Vd [1, 7]?
A: Its Vd is 37 L.

Q: And the AUC(0-inf) [1, 8]?
A: The AUC(0-inf) was 0.584 µM·h.

Q: What about the Cmax [1, 8] of the same compound?
A: Its Cmax is 293 nM.

Q: What about the clearance [1, 8] of the same compound?
A: The clearance was 217 mL/min.

Q: And the Vd [1, 8]?
A: The Vd was 33 L.

Q: And the AUC(0-inf) [1, 9]?
A: Its AUC(0-inf) is 0.666 µM·h.

Q: And the Cmax [1, 9]?
A: The Cmax was 381 nM.

Q: What about the clearance [1, 9] of the same compound?
A: The clearance was 267 mL/min.

Q: What about the Vd [1, 9] of the same compound?
A: The Vd was 36 L.

Q: And the AUC(0-inf) [1, 10]?
A: Its AUC(0-inf) is 1.31 µM·h.

Q: And the Cmax [1, 10]?
A: The Cmax was 741 nM.

Q: And the clearance [1, 10]?
A: The clearance was 183 mL/min.

Q: And the Vd [1, 10]?
A: Its Vd is 50 L.

Q: And the tolerability ([2]; 1.0-25.0 mg IV every 3 weeks)?
A: The tolerability was “well tolerated”.

Q: What about the “maximum tolerated dose (MTD)” value ([2]; IV infusion every 3 weeks, flat dose) of the same compound?
A: Its value is 18 mg.

Q: What about the “ongoing patients with SD for 44 and 45 weeks” value ([3]; NET patients) of the same compound?
A: The value was 2 patients.

Q: And the “patients with stable disease (SD) at 9 weeks” value ([3]; among 15 NET patients evaluable for response)?
A: Its value is 11 patients.

Q: And the “patients with target lesion shrinkage” value ([3]; dose range 8-18 mg)?
A: Its value is 3 patients.

Q: And the “patients with SD sustained for 18-45 weeks” value ([3]; of the 11 NET patients with SD at 9 weeks)?
A: The value was 8 patients.

Q: What about the “disease related symptoms of flushing” value (GI (large bowel) NET) of the same compound?
A: The value was “disappeared after first dose”.

Q: What about the “chromogranin A (CgA) level” value (GI (large bowel) NET; FIG. 2A) of the same compound?
A: Its value is “decreased over time”.

Q: What about the “neuron specific enolase (NSE) level” value (GI (large bowel) NET; FIG. 2B) of the same compound?
A: The value was “decreased over time”.

Q: What about the “circulating tumor cells (CTC) level” value (GI (large bowel) NET; FIG. 2C) of the same compound?
A: Its value is “decreased over time”.
